Experimental data published in patent US20240392020A1 (JIANGSU HENGRUI PHARMACEUTICALS, published 2024).

Experiments:
hTSLP = biological target: T1, hTSLP (human, UniProt Q969D9 29-159); experiment: ELISA
T1 construct: bought

[1] = biological target: T2, hCD3 antigen protein (heterodimer of delta and epsilon subunits) (human); experiment: SPR Biacore T200, antibody captured on Protein A chip
T2 construct: prepared in the laboratory
T2 chain 1: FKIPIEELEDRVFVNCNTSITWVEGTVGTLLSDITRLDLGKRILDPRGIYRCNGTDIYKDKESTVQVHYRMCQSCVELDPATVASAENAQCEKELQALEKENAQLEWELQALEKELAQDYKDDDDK
T2 chain 2: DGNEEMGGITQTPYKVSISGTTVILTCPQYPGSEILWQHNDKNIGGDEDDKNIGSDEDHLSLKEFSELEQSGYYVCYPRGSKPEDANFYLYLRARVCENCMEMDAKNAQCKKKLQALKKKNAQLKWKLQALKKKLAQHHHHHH

hB7H3 antigen protein = biological target: T3, hB7H3 antigen protein (human, UniProt Q5ZPR3 29-461); experiment: as above
T3 construct: prepared in the laboratory
T3 sequence: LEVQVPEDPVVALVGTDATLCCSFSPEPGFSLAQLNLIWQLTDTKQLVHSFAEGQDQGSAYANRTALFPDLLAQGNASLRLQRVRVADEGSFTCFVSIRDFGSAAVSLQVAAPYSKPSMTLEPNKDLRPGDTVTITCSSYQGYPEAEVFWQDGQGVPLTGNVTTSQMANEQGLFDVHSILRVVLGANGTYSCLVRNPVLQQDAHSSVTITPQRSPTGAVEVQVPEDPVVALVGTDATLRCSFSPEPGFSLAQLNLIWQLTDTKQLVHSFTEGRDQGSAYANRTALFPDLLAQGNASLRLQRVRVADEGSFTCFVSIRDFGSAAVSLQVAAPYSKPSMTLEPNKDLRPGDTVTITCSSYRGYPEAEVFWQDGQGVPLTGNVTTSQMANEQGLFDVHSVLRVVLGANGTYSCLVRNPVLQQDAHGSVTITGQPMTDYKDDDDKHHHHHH

hBAFF [2] = biological target: T4, hBAFF (human, UniProt Q9Y275 134-285); experiment: ELISA
T4 construct: bought

hP40 [3] = biological target: T5, hP40 (human, UniProt P29460 23-328); experiment: ELISA
T5 construct: bought
T5 sequence (looked up): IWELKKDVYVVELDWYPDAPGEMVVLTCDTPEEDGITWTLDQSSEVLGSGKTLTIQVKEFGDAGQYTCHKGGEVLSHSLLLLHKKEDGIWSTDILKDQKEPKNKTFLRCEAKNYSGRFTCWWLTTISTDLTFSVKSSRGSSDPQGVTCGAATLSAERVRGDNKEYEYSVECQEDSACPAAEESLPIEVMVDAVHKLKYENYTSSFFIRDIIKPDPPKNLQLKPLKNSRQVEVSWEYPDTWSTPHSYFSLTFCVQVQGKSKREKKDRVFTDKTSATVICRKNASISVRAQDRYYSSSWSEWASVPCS

hBAFF [4] = biological target: T4, hBAFF; experiment: SPR Biacore T200, antibody captured on Protein A chip
hP40 [5] = biological target: T5, hP40; experiment: as above

B1: J2 (antibody)
heavy: not shown
light: SYELTQPLSVSVALGQTARITCSGDNIGSKYVHWYQQKPGQAPVLVIYGDNERPSGIPERFSGSNSGNTATLTISRAQAGDEADYYCQAADWVDFYVFGGGTKLTVLFDPVYKVKPNPPHNLSVINSEELSSILKLTWTNPSIKSVIILKYNIQYRTKDASTWSQIPPEDTASTRSSFTVQDLKPFTEYVFRIRCMKEDGKGYWSDWSEEASGIT
For B1, the EC50 (hTSLP) was 179 nM.

B2: J0 (antibody, human IgG1, lambda)
heavy: not shown
light: SYELTQPLSVSVALGQTARITCSGDNIGSKYVHWYQQKPGQAPVLVIYGDNERPSGIPERFSGSNSGNTATLTISRAQAGDEADYYCQAADWVDFYVFGGGTKLTVLGQPKAAPSVTLFPPSSEELQANKATLVCLISDFYPGAVTVAWKADSSPVKAGVETTTPSKQSNNKYAASSYLSLTPEQWKSHRSYSCQVTHEGSTVEKTVAPTECS
Work on B2 yielded an EC50 (hTSLP) of 0.08 nM.

B3: FA-1 (bispecific antibody)
heavy 1: QVQLVQSGGGVVQPGTSLRLSCAASGFIFSSSAMHWVRQAPGKGLEWVAVISYDGSNKYYVDSVKGRFTISRDNSKNTLYLQMNSLRAEDTAVYYCARSARLYASFDYWGQGALVTVSSGGGGSGIPPKIECLPIDISIDEGKVLTVASAFTGEPTPEVTWSTGGRKIHSQEQGRFHIENTDDLTTLIIKDVQKQDGGLYTLTLRNEFGSDSATVNIHIRSIDKTHTCPPCPAPEAAGGPSVFLFPPKPKDTLMISRTPEVTCVVVDVSHEDPEVKFNWYVDGVEVHNAKTKPREEQYNSTYRVVSVLTVLHQDWLNGKEYKCKVSNKALPAPIEKTISKAKGQPREPQVCTLPPSREEMTKNQVSLSCAVKGFYPSDIAVEWESNGQPENNYKTTPPVLDSDGSFFLVSKLTVDKSRWQQGNVFSCSVMHEALHNHYTQKSLSLSPGK
light 1: DTVVTQEPSFSVSPGGTVTLTCGLSSGSVSTSHYPSWYQQTPGQAPRMLIYNTNTRSSGVPDRFSGSILGNKAALTITGAQADDESDYYCAIHVDRDIWVFGGGTKLTVLGGGGSSGAPRFLTRPLAFVVSVGKDATLSSQIVGNPTPQVSWEKDKQPVTAGARFRLAQDGDLYRLKILDLQLSDSGQYVSRARNAIGEAFACLGLQVDAEA
heavy 2: not shown
light 2: not shown
notes: also called FA-1 bispecific antibody
B3 was tested, and the Kd [1] was 60.2 nM, the koff [1] was 0.00425 s⁻¹ and the kon [1] was 70600 M⁻¹ s⁻¹. The Kd (hB7H3 antigen protein) was 45 nM, the koff (hB7H3 antigen protein) was 0.00712 s⁻¹ and the kon (hB7H3 antigen protein) was 158000 M⁻¹ s⁻¹.

B4: BU2 (bispecific antibody, human IgG1, kappa, L234A L235A)
heavy 1: not shown
light 1: not shown
heavy 2: QVQLQQSGAEVKKPGSSVRVSCKASGGTFNNNAINWVRQAPGQGLEWMGGIIPMFGTAKYSQNFQGRVAITADESTGTASMELSSLRSEDTAVYYCARSRDLLLFPHHALSPWGRGTMVTVSSGGGGSGIPPKIECLPSDISIDEGKVLTVASAFTGEPTPEVTWSTGGRKIHSQEQGRFHIESTEDLTTLIISDVQKQDGGLYSLSLGNEFGSDSATVNIHIRSIDKTHTCPPCPAPEAAGGPSVFLFPPKPKDTLMISRTPEVTCVVVDVSHEDPEVKFNWYVDGVEVHNAKTKPREEQYNSTYRVVSVLTVLHQDWLNGKEYKCKVSNKALPAPIEKTISKAKGQPREPQVCTLPPSREEMTKNQVSLSCAVKGFYPSDIAVEWESNGQPENNYKTTPPVLDSDGSFFLVSKLTVDKSRWQQGNVFSCSVMHEALHNHYTQKSLSLSPGK
light 2: SSELTQDPAVSVALGQTVRVTCQGDSLRSYYASWYQQKPGQAPVLVIYGKNNRPSGIPDRFSGSSSGNTASLTITGAQAEDEADYYCSSRDSSGNHWVFGGGTELTVLGGGGSDQPQFSGAPRFLTRPLSYVVSVGKDASLSSQIVGNPTPQVSWEKDQLPVTAGARFRLAQDGDLYRLKILDLQLSDSGQYVSRARNAIGEAFACVGLEVGAEA
With B4 the EC50 (hBAFF [2]) was 0.469 nM and the EC50 (hP40 [3]) was 0.0567 nM.

B5: BU3 (bispecific antibody, human IgG1, kappa, L234A L235A)
heavy 1: not shown
light 1: SSELTQDPAVSVALGQTVRVTCQGDSLRSYYASWYQQKPGQAPVLVIYGKNNRPSGIPDRFSGSSSGNTASLTITGAQAEDEADYYCSSRDSSGNHWVFGGGTELTVLGGGGSDQPQFSGAPRFLTRPLSYVVSVGKDASLSSQIVGNPTPQVSWEKDQLPVTAGARFRLAQDGDLYRLKILDLQLSDSGQYVSRARNAIGEAFACVGLEVGAEA
heavy 2: EVQLVQSGAEVKKPGESLKISCKGSGYSFTTYWLGWVRQMPGKGLDWIGIMSPVDSDIRYSPSFQGQVTMSVDKSITTAYLQWNSLKASDTAMYYCARRRPGQGYFDFWGQGTLVTVSSASTKGPSVFPLAPSSKSTSGGTAALGCLVKDYFPEPVTVSWNSGALTSGVHTFPAVLQSSGLYSLSSVVTVPSSSLGTQTYICNVNHKPSNTKVDKKVEPKSCDKTHTCPPCPAPEAAGGPSVFLFPPKPKDTLMISRTPEVTCVVVDVSHEDPEVKFNWYVDGVEVHNAKTKPREEQYNSTYRVVSVLTVLHQDWLNGKEYKCKVSNKALPAPIEKTISKAKGQPREPQVCTLPPSREEMTKNQVSLSCAVKGFYPSDIAVEWESNGQPENNYKTTPPVLDSDGSFFLVSKLTVDKSRWQQGNVFSCSVMHEALHNHYTQKSLSLSPGK
light 2: not shown
In the case of B5, the EC50 (hBAFF [2]) is reported as 0.413 nM and the EC50 (hP40 [3]) is reported as 0.224 nM.

B6: BU4 (bispecific antibody, human IgG1, kappa, L234A L235A)
heavy 1: not shown
light 1: not shown
heavy 2: QVQLQQSGAEVKKPGSSVRVSCKASGGTFNNNAINWVRQAPGQGLEWMGGIIPMFGTAKYSQNFQGRVAITADESTGTASMELSSLRSEDTAVYYCARSRDLLLFPHHALSPWGRGTMVTVSSGGGGSKAGIRGIPPKIECLPSDISIDEGKVLTVASAFTGEPTPEVTWSTGGRKIHSQEQGRFHIESTEDLTTLIISDVQKQDGGLYSLSLGNEFGSDSATVNIHIRSIDKTHTCPPCPAPEAAGGPSVFLFPPKPKDTLMISRTPEVTCVVVDVSHEDPEVKFNWYVDGVEVHNAKTKPREEQYNSTYRVVSVLTVLHQDWLNGKEYKCKVSNKALPAPIEKTISKAKGQPREPQVCTLPPSREEMTKNQVSLSCAVKGFYPSDIAVEWESNGQPENNYKTTPPVLDSDGSFFLVSKLTVDKSRWQQGNVFSCSVMHEALHNHYTQKSLSLSPGK
light 2: SSELTQDPAVSVALGQTVRVTCQGDSLRSYYASWYQQKPGQAPVLVIYGKNNRPSGIPDRFSGSSSGNTASLTITGAQAEDEADYYCSSRDSSGNHWVFGGGTELTVLGGGGSDQPQFSGAPRFLTRPLSYVVSVGKDASLSSQIVGNPTPQVSWEKDQLPVTAGARFRLAQDGDLYRLKILDLQLSDSGQYVSRARNAIGEAFACVGLEVGAEA
Binder B6 has an EC50 (hBAFF [2]) of 0.506 nM and an EC50 (hP40 [3]) of 0.0443 nM.

B7: J3 (antibody)
heavy: not shown
light: SYELTQPLSVSVALGQTARITCSGDNIGSKYVHWYQQKPGQAPVLVIYGDNERPSGIPERFSGSNSGNTATLTISRAQAGDEADYYCQAADWVDFYVFGGGTKLTVLGIPPKIEALPSDISIDEGKVLTVACAFTGEPTPEVTWSCGGRKIHSQEQGRFHIENTDDLTTLIIMDVQKQDGGLYTLSLGNEFGSDSATVNIHIRSI
Work on B7 yielded an EC50 (hTSLP) of 0.25 nM.

B8: BU1 (bispecific antibody, human IgG1, lambda, L234A L235A)
heavy 1: not shown
light 1: SSELTQDPAVSVALGQTVRVTCQGDSLRSYYASWYQQKPGQAPVLVIYGKNNRPSGIPDRFSGSSSGNTASLTITGAQAEDEADYYCSSRDSSGNHWVFGGGTELTVLGQPKAAPSVTLFPPSSEELQANKATLVCLISDFYPGAVTVAWKADSSPVKAGVETTTPSKQSNNKYAASSYLSLTPEQWKSHRSYSCQVTHEGSTVEKTVAPTECS
heavy 2: EVQLVQSGAEVKKPGESLKISCKGSGYSFTTYWLGWVRQMPGKGLDWIGIMSPVDSDIRYSPSFQGQVTMSVDKSITTAYLQWNSLKASDTAMYYCARRRPGQGYFDFWGQGTLVTVSSGGGGSGIPPKIECLPSDISIDEGKVLTVASAFTGEPTPEVTWSTGGRKIHSQEQGRFHIESTEDLTTLIISDVQKQDGGLYSLSLGNEFGSDSATVNIHIRSIDKTHTCPPCPAPEAAGGPSVFLFPPKPKDTLMISRTPEVTCVVVDVSHEDPEVKFNWYVDGVEVHNAKTKPREEQYNSTYRVVSVLTVLHQDWLNGKEYKCKVSNKALPAPIEKTISKAKGQPREPQVCTLPPSREEMTKNQVSLSCAVKGFYPSDIAVEWESNGQPENNYKTTPPVLDSDGSFFLVSKLTVDKSRWQQGNVFSCSVMHEALHNHYTQKSLSLSPGK
light 2: DIQMTQSPSSLSASVGDRVTITCRASQGISSWLAWYQQKPEKAPKSLIYAASSLQSGVPSRFSGSGSGTDFTLTISSLQPEDFATYYCQQYNIYPYTFGQGTKLEIKGGGGSSGAPRFLTRPLSYVVSVGKDASLSSQIVGNPTPQVSWEKDQLPVTAGARFRLAQDGDLYRLKILDLQLSDSGQYVSRARNAIGEAFACVGLEVGAEA
With B8 the EC50 (hBAFF [2]) was 0.356 nM, the EC50 (hP40 [3]) was 0.084 nM and the Kd (hBAFF [4]) was 0.499 nM. The koff (hBAFF [4]) was 0.000169 s⁻¹, the kon (hBAFF [4]) was 338000 M⁻¹ s⁻¹ and the Kd (hP40 [5]) was 0.0349 nM. For the same binder, the koff (hP40 [5]) was 4.81e-05 s⁻¹ and the kon (hP40 [5]) was 1.38e+06 M⁻¹ s⁻¹.
